Source: US20230357447A1 (JANUX THERAPEUTICS, published 2023)
Ends that are not written are not given here.

Key:
[1] = target: T1, Ab-12, anti-PD-L1xCD28 non-masked antibody in Vh format; assay: competition ELISA: peptide titrated against 5 nM Ab-12; binding of Ab-12 to captured biotinylated CD28 antigen is read
T1 construct: also called PDL1xCD28 non-masked (Vh)

[2] = target: T1, Ab-12, anti-PD-L1xCD28 non-masked …; assay: as above; remark: listed apart in the source
[3] = target: Anti-CD28 scFv (VH-linker 1-VL); assay: phage ELISA: biotinylated anti-CD28 scFv on neutravidin plate, clonal phage supernatant, anti-M13-HRP;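 note: before phage addition, wells were preincubated either with soluble CD28 protein in blocking buffer or with blocking buffer only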
[4] = target: Anti-CD28 scFv (VH-linker 1-VL); assay: phage ELISA: biotinylated anti-CD28 scFv on neutravidin plate, clonal phage supernatant, anti-M13-HRP; wells pre-incubated with soluble CD28 (competitor);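 for Phage binding ELISA CD28 scFv signal in presence of CD28: wells pretreated with soluble CD28 protein in blocking buffer before phage addition, no wash in between, reference wells got blocking buffer only, bound phage detected after washing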
[5] = target: T1, Ab-12, anti-PD-L1xCD28 non-masked …; assay: competition ELISA: peptide titrated against 5 nM Ab-12; binding of Ab-12 to captured biotinylated CD28 antigen is read; table prints 'IC50 nM' but the axis is Log [Peptide, uM]; no fall of the signal

Binder | Phage binding ELISA CD28 scFv signal [3] | Phage binding ELISA CD28 scFv signal in presence of CD28 [4] | further results
MDWCPRDLWHLCFS (cysteine pairing not given here; also: biotinylated, site not given here, Synthetic biotinylated peptide loaded on streptavidin biosensors) [Peptide-39] | – | – | IC50 [1]: 480 nM
MDWCPRDLWHECFA (cysteine pairing not given here; also: biotinylated, site not given here, Synthetic biotinylated peptide loaded on streptavidin biosensors) [Peptide-38] | – | – | IC50 [1]: 350 nM
MDWCPRSLWHECFA (cysteine pairing not given here; also: biotinylated, site not given here, Synthetic biotinylated peptide loaded on streptavidin biosensors) [Peptide-47] | – | – | IC50 [2]: 450 nM
MDWCPRDMWDECFA (cysteine pairing not given here; also: biotinylated, site not given here, Synthetic biotinylated peptide loaded on streptavidin biosensors) [Peptide-42] | – | – | IC50 [2]: 440 nM
MDWCPRDMWSECFA (cysteine pairing not given here; also: biotinylated, site not given here, Synthetic biotinylated peptide loaded on streptavidin biosensors) [Peptide-43] | – | – | IC50 [2]: 240 nM
MDWCPRDRWDVCFA (Clonal phage from the Peptide-9 library) [Phage-439] | 0.924 | 0.096 | –
GQHCATSMWRYCMF (cysteine pairing not given here; also: biotinylated, site not given here, biotinylated when captured on the plate) [Peptide-10] | – | – | IC50 [5]: > 100 nM
MDWCPMSRWAFCFD (Clonal phage from the Peptide-9 library) [Phage-438] | 1 | 0.115 | –
MVDCPLISFDECLA (Clonal phage from the Peptide-9 library) [Phage-449] | 0.07 | 0.076 | –
IDWCPIIQGLPCFA (Clonal phage from the Peptide-9 library) [Phage-432] | 0.368 | 0.065 | –
MDWCPRHMWNYCFA (cysteine pairing not given here; also: biotinylated, site not given here, Synthetic biotinylated peptide loaded on streptavidin biosensors) [Peptide-46] | – | – | IC50 [2]: 240 nM
MDWCPRDLWVHCFA (cysteine pairing not given here; also: biotinylated, site not given here, Synthetic biotinylated peptide loaded on streptavidin biosensors) [Peptide-41] | – | – | IC50 [2]: 150 nM
MDWCPIYLWSECFN (cysteine pairing not given here; also: biotinylated, site not given here, Synthetic biotinylated peptide loaded on streptavidin biosensors) [Peptide-33] | – | – | IC50 [1]: 160 nM
MDWCPRDWWHMCFN (Clonal phage from the Peptide-9 library) [Phage-452] | 2.12 | 0.243 | –
MDWCPRDLWDLCFA (cysteine pairing not given here; also: biotinylated, site not given here, Synthetic biotinylated peptide loaded on streptavidin biosensors) [Peptide-37] | – | – | IC50 [1]: 1110 nM
MAWCPWAQFDECLA (Clonal phage from the Peptide-9 library) [Phage-433] | 0.071 | 0.078 | –
MAWCPWASFDECLA (Clonal phage from the Peptide-9 library) [Phage-448] | 0.089 | 0.109 | –
MDWCPLYLWNECFN (cysteine pairing not given here; also: biotinylated, site not given here, Synthetic biotinylated peptide loaded on streptavidin biosensors) [Peptide-36] | – | – | IC50 [1]: 400 nM
MDWCPRARWHDCFF (Clonal phage from the Peptide-9 library) [Phage-445] | 0.497 | 0.138 | –
MDWCPRDRWVDCYA (Clonal phage from the Peptide-9 library) [Phage-435] | 1.48 | 0.403 | –
MDWCPIHLWHVCFN (cysteine pairing not given here; also: biotinylated, site not given here, Synthetic biotinylated peptide loaded on streptavidin biosensors) [Peptide-32] | – | – | IC50 [1]: 970 nM

Binder | Phage binding ELISA CD28 scFv signal [3] | Phage binding ELISA CD28 scFv signal in presence of CD28 [4] | further results
IVWCPTTQWNRCAT (Clonal phage from the Peptide-9 library) [Phage-434] | 0.067 | 0.083 | –
MDWCPRFMWDECFN (cysteine pairing not given here; also: biotinylated, site not given here, Synthetic biotinylated peptide loaded on streptavidin biosensors) [Peptide-45] | – | – | IC50 [2]: 370 nM
EDWCPTDVWPYCFS (Clonal phage from the Peptide-9 library) [Phage-450] | 0.711 | 0.157 | –
MDWCPRDLWSECFF (cysteine pairing not given here; also: biotinylated, site not given here, Synthetic biotinylated peptide loaded on streptavidin biosensors) [Peptide-40] | – | – | IC50 [2]: 250 nM
MDWCPRDRWDVCYY (Clonal phage from the Peptide-9 library) [Phage-447] | 0.074 | 0.073 | –
MNWCPKDIWYLCFN (cysteine pairing not given here; also: biotinylated, site not given here, Synthetic biotinylated peptide loaded on streptavidin biosensors) [Peptide-34] | – | – | IC50 [1]: 1410 nM
MDWCPIDLWNECFF (cysteine pairing not given here; also: biotinylated, site not given here, Synthetic biotinylated peptide loaded on streptavidin biosensors) [Peptide-31] | – | – | IC50 [1]: 1770 nM
MDWCPRFWWHECYA (Clonal phage from the Peptide-9 library) [Phage-451] | 2.4 | 0.503 | –
MDWCPLHMWHECFS (cysteine pairing not given here; also: biotinylated, site not given here, Synthetic biotinylated peptide loaded on streptavidin biosensors) [Peptide-35] | – | – | IC50 [1]: 1270 nM
MDWCPSDYWYVCFA (Clonal phage from the Peptide-9 library) [Phage-453] | 0.707 | 0.08 | –
WICDKSGSIMLCRA (cysteine pairing not given here; also: biotinylated, site not given here, biotinylated when captured on the plate) [Peptide-11] | – | – | IC50 [5]: > 100 nM
MDWCPRYLWHVCFA (cysteine pairing not given here; also: biotinylated, site not given here, Synthetic biotinylated peptide loaded on streptavidin biosensors) [Peptide-48] | – | – | IC50 [2]: 790 nM
MDWCPRDMWSVCFS (cysteine pairing not given here; also: biotinylated, site not given here, Synthetic biotinylated peptide loaded on streptavidin biosensors) [Peptide-44] | – | – | IC50 [2]: 940 nM
MDWCPRDRWADCFN (Clonal phage from the Peptide-9 library) [Phage-436] | 1.35 | 0.08 | –
MDWCPVDRWADCFN (Clonal phage from the Peptide-9 library) [Phage-437] | 1.16 | 0.315 | –
MDWCPRDRWDDCFF (Clonal phage from the Peptide-9 library) [Phage-441] | 0.899 | 0.183 | –
MDWCPRDRWDDCFN (Clonal phage from the Peptide-9 library) [Phage-446] | 0.45 | 0.077 | –
MDWCPRDRWVDCFN (Clonal phage from the Peptide-9 library) [Phage-440] | 0.911 | 0.132 | –
IYWCPIDRWNDCYN (Clonal phage from the Peptide-9 library) [Phage-442] | 0.867 | 0.164 | –
DNCHYIWGFEWQCG (cysteine pairing not given here; also: biotinylated, site not given here, biotinylated when captured on the plate) [Peptide-13] | – | – | IC50 [5]: > 100 nM
MDWCPMTRWNDCYF (Clonal phage from the Peptide-9 library) [Phage-443] | 0.671 | 0.078 | –
